Experimental findings from article PMC3299985 (Structure(London, England:1993), 2012) are described below.

T1: Orc1 (subunit of the purified ORC) (S. cerevisiae, UniProt P54784 1-914)
T1 sequence (looked up): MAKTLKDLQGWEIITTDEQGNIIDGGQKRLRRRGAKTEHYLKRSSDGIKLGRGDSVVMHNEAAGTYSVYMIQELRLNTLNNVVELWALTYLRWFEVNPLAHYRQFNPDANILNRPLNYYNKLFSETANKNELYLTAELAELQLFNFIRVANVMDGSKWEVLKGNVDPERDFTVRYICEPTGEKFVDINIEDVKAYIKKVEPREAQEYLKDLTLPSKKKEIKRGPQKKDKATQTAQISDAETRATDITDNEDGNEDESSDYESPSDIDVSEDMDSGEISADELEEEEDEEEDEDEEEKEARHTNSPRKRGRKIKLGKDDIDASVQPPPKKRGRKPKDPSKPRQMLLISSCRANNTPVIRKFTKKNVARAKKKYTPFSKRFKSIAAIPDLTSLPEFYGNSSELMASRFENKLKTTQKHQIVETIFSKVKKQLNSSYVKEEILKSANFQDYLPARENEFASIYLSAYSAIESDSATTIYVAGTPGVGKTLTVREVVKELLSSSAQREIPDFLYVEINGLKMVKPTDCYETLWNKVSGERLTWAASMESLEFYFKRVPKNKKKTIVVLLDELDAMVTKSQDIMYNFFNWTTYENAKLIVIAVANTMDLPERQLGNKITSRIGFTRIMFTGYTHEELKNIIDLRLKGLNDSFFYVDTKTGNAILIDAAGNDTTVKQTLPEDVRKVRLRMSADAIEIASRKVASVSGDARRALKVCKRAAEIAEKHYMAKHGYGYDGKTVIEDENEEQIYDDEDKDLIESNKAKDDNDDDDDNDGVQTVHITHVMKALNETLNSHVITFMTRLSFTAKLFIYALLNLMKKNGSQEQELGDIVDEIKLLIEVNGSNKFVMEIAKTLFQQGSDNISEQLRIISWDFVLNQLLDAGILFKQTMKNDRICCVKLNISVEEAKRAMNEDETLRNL

T2: Orc2 (subunit of the purified ORC) (S. cerevisiae, UniProt P32833 1-620)
T2 sequence (looked up): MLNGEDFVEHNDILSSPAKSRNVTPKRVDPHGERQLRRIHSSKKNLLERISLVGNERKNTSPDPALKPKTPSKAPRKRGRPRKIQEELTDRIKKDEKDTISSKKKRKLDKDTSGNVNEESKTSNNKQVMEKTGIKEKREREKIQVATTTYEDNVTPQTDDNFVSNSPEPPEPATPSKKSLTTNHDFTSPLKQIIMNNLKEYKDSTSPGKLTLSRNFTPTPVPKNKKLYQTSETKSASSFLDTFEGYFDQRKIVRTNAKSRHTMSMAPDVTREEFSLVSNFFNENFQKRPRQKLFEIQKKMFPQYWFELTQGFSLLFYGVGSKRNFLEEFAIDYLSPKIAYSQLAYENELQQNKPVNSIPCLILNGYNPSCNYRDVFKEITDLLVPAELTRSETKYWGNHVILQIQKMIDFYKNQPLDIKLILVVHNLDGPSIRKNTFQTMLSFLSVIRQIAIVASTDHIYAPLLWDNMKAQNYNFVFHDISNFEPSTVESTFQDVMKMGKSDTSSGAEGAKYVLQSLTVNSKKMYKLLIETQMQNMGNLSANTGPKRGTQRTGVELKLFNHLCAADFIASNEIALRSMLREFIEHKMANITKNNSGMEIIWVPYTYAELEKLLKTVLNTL

B1: S. cerevisiae Cdc6 (natural protein, UniProt P09119 1-513, looked up)
chain: MSAIPITPTKRIRRNLFDDAPATPPRPLKRKKLQFTDVTPESSPEKLQFGSQSIFLRTKALLQKSSELVNLNSSDGALPARTAEYEQVMNFLAKAISEHRSDSLYITGPPGTGKTAQLDMIIRQKFQSLPLSLSTPRSKDVLRHTNPNLQNLSWFELPDGRLESVAVTSINCISLGEPSSIFQKIFDSFQDLNGPTLQIKNMQHLQKFLEPYHKKTTFVVVLDEMDRLLHANTSETQSVRTILELFLLAKLPTVSFVLIGMANSLDMKDRFLSRLNLDRGLLPQTIVFQPYTAEQMYEIVIQKMSSLPTIIFQPMAIKFAAKKCAGNTGDLRKLFDVLRGSIEIYELEKRFLLSPTRGSLNSAQVPLTPTTSPVKKSYPEPQGKIGLNYIAKVFSKFVNNNSTRTRIAKLNIQQKLILCTIIQSLKLNSDATIDESFDHYIKAITKTDTLAPLQRNEFLEICTILETCGLVSIKKTKCKGKTKRFVDKIDVDLDMREFYDEMTKISILKPFLH
B2: Orc6 (subunit of the purified ORC) (natural protein, S. cerevisiae, UniProt P38826 1-435, looked up)
chain: MSMQQVQHCVAEVLRLDPQEKPDWSSGYLKKLTNATSILYNTSLNKVMLKQDEEVARCHICAYIASQKMNEKHMPDLCYYIDSIPLEPKKAKHLMNLFRQSLSNSSPMKQFAWTPSPKKNKRSPVKNGGRFTSSDPKELRNQLFGTPTKVRKSQNNDSFVIPELPPMQTNESPSITRRKLAFEEDEDEDEEEPGNDGLSLKSHSNKSITGTRNVDSDEYENHESDPTSEEEPLGVQESRSGRTKQNKAVGKPQSELKTAKALRKRGRIPNSLLVKKYCKMTTEEIIRLCNDFELPREVAYKIVDEYNINASRLVCPWQLVCGLVLNCTFIVFNERRRKDPRIDHFIVSKMCSLMLTSKVDDVIECVKLVKELIIGEKWFRDLQIRYDDFDGIRYDEIIFRKLGSMLQTTNILVTDDQYNIWKKRIEMDLALTEPL
B3: Orc5 (subunit of the purified ORC) (natural protein, S. cerevisiae, UniProt P50874 1-479, looked up)
chain: MNVTTPEVAFREYQTNCLASYISADPDITPSNLILQGYSGTGKTYTLKKYFNANPNLHAVWLEPVELVSWKPLLQAIARTVQYKLKTLYPNIPTTDYDPLQVEEPFLLVKTLHNIFVQYESLQEKTCLFLILDGFDSLQDLDAALFNKYIKLNELLPKDSKINIKFIYTMLETSFLQRYSTHCIPTVMFPRYNVDEVSTILVMSRCGELMEDSCLRKRIIEEQITDCTDDQFQNVAANFIHLIVQAFHSYTGNDIFALNDLIDFKWPKYVSRITKENIFEPLALYKSAIKLFLSTDDNLSENGQGESAITTNRDDLENSQTYDLSIISKYLLIASYICSYLEPRYDASIFSRKTRIIQGRAAYGRRKKKEVNPRYLQPSLFAIERLLAIFQAIFPIQGKAESGSLSALREESLMKANIEVFQNLSELHTLKLIATTMNKNIDYLSPKVRWKVNVPWEIIKEISESVHFNISDYFSDIHE
B4: Orc4 (subunit of the purified ORC) (natural protein, S. cerevisiae, UniProt P54791 1-529, looked up)
chain: MTISEARLSPQVNLLPIKRHSNEEVEETAAILKKRTIDNEKCKDSDPGFGSLQRRLLQQLYGTLPTDEKIIFTYLQDCQQEIDRIIKQSIIQKESHSVILVGPRQSYKTYLLDYELSLLQQSYKEQFITIRLNGFIHSEQTAINGIATQLEQQLQKIHGSEEKIDDTSLETISSGSLTEVFEKILLLLDSTTKTRNEDSGEVDRESITKITVVFIFDEIDTFAGPVRQTLLYNLFDMVEHSRVPVCIFGCTTKLNILEYLEKRVKSRFSQRVIYMPQIQNLDDMVDAVRNLLTVRSEISPWVSQWNETLEKELSDPRSNLNRHIRMNFETFRSLPTLKNSIIPLVATSKNFGSLCTAIKSCSFLDIYNKNQLSNNLTGRLQSLSDLELAILISAARVALRAKDGSFNFNLAYAEYEKMIKAINSRIPTVAPTTNVGTGQSTFSIDNTIKLWLKKDVKNVWENLVQLDFFTEKSAVGLRDNATAAFYASNYQFQGTMIPFDLRSYQMQIILQELRRIIPKSNMYYSWTQL
B5: Orc3 (subunit of the purified ORC) (natural protein, S. cerevisiae, UniProt P54790 1-616, looked up)
chain: MSDLNQSKKMNVSEFADAQRSHYTVYPSLPQSNKNDKHIPFVKLLSGKESEVNVEKRWELYHQLHSHFHDQVDHIIDNIEADLKAEISDLLYSETTQKRRCFNTIFLLGSDSTTKIELKDESSRYNVLIELTPKESPNVRMMLRRSMYKLYSAADAEEHPTIKYEDINDEDGDFTEQNNDVSYDLSLVENFKRLFGKDLAMVFNFKDVDSINFNTLDNFIILLKSAFKYDHVKISLIFNINTNLSNIEKNLRQSTIRLLKRNYHKLDVSSNKGFKYGNQIFQSFLDTVDGKLNLSDRFVEFILSKMANNTNHNLQLLTKMLDYSLMSYFFQNAFSVFIDPVNVDFLNDDYLKILSRCPTFMFFVEGLIKQHAPADEILSLLTNKNRGLEEFFVEFLVRENPINGHAKFVARFLEEELNITNFNLIELYHNLLIGKLDSYLDRWSACKEYKDRLHFEPIDTIFQELFTLDNRSGLLTQSIFPSYKSNIEDNLLSWEQVLPSLDKENYDTLSGDLDKIMAPVLGQLFKLYREANMTINIYDFYIAFRETLPKEEILNFIRKDPSNTKLLELAETPDAFDKVALILFMQAIFAFENMGLIKFQSTKSYDLVEKCVWRGI

What all share (experiment): cryo-EM structure
Assay [1] has as its target T1, Orc1 (subunit of the purified ORC).
The target in assay [2] is T2, Orc2 (subunit of the purified ORC).
The target of assay [3] is B4.

As to B1, in assay [1], the binding result is recorded as “binds”.

Take B2: the binding result in assay [2] is recorded as “binds”. On to B3, for which the binding result in assay [2] and in assay [3] was “binds” in each case. With B4, the binding result in assay [1] was “binds”. As to B5, the binding result in assay [2] is listed as “binds”.
